Reference: patent US8420051B2, “Muteins of hNGAL and related proteins with affinity for a given target” (Technische Universitaet Meunchen, priority 2008, dated 2013)
Like-named read-outs stand apart in the source and are kept apart here.

What was measured:
[1] = target: human neutrophil gelatinase-associated lipocalin (hNGAL, Lcn2, P80188), wild type (Homo sapiens, UniProt P80188); conditions: cited from earlier work
[2] = target: T1, hNGAL mutein C26, SEQ ID NO: 10 (Yd5 + L42P/P48L/Q49L/I55T/K75M) (Homo sapiens, UniProt P80188, C107S/D97E/I100T/I61A/I75T/K154S/K95M/L56R/L62P/L90R/P68L/Q48H/Q69L/R101M/S147Q/S88A/T156S/T165A/T74Q/V53Q/W99L/Y158L/Y72T); format: binding; conditions: read-out: Kg (from half-maximal free metal chelate concentration)
T1 construct: the mature hNGAL protein and the C-terminal Strep-tag II; OmpA signal peptide (N, cleaved yes); made in house; host or cells: E. coli BL21 or TG1-F- (periplasm), plasmid pNGAL15
T1 sequence (P80188 21-198 with the stated changes): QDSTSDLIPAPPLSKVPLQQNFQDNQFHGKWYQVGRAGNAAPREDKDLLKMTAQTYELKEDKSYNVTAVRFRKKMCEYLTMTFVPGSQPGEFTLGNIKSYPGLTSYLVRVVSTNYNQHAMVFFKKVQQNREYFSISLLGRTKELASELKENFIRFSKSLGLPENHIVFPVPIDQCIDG

[3] = target: T2, human neutrophil gelatinase-associated lipocalin (hNGAL), wild type, SEQ ID NO: 1 (Homo sapiens, UniProt P80188); assay: ELISA, captured hNGAL variant with Me•DTPA conjugate; format: binding
T2 construct: the mature hNGAL protein and the C-terminal Strep-tag II; OmpA signal peptide (N, cleaved yes); made in house; host or cells: E. coli BL21 or TG1-F- (periplasm), plasmid pNGAL14
T2 sequence (P80188 21-198): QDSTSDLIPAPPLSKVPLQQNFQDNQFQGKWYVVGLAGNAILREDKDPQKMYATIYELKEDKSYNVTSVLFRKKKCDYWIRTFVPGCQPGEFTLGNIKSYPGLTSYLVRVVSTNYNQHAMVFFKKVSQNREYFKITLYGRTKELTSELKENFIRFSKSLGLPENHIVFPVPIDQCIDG

[4] = target: T3, hNGAL mutein Tb7.N9, SEQ ID NO: 6 (Tb7 + A79L/I80T) (Homo sapiens, UniProt P80188, C107S/I100T/I61A/K154S/L56R/L90R/Q48H/R101M/S88A/T165A/T74Q/V53Q/W99L/Y158L/Y72T); assay: SPR (Biacore), immobilized Me•DTPA-RNase; format: binding
T3 construct: the mature hNGAL protein and the C-terminal Strep-tag II; OmpA signal peptide (N, cleaved yes); made in house; host or cells: E. coli BL21 or TG1-F- (periplasm), plasmid pNGAL15
T3 sequence (P80188 21-198 Q48H/V53Q/L56R/I61A/Y72T/T74Q/S88A/L90R/W99L/I100T/R101M/C107S/K154S/Y158L/T165A): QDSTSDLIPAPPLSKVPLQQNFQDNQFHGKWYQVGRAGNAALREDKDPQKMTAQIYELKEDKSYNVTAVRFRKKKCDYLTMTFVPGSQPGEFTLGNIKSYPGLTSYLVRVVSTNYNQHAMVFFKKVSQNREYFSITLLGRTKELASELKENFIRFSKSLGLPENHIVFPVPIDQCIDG
Experimental: (§1) Real time analysis of hNGAL variants was performed on a BIAcore X system (BIAcore, Uppsala, Sweden) using PBS/t (PBS containing 0.005% (v/v) Tween 20) as running buffer. 5 to 27 μg/ml solutions of the Me•DTPA-RNase conjugate in 10 mM Na-acetate, pH 5.0 were immobilized on a CM5 chip using standard amine coupling chemistry, resulting in a ligand density of 240 to 1800 resonance units (RU). The purified hNGAL variant was applied at a flow rate of 5 or 25 μl/min at concentrations of 0.5 up to 500 nM. The sensorgrams were corrected by subtraction of the corresponding signals measured for the control channel, which had been activated and blocked with ethanolamine. Kinetic data evaluation was performed by global fitting with BIAevaluation software V 3.0 (Karlsson et al. (1991) J. Immunol. Methods 145, 229-240). Alternatively, the plateau values at the end of the association phase (after 200 s) were plotted against the applied protein concentration and fitted as in the ELISA (see above) to determine the equilibrium dissociation constants (KO.
(§2) Finally, the hNGAL variants were analyzed by SPR using a Biacore CM-5 chip with the covalently attached Y-DTPA-RNaseA conjugate and applying the purified recombinant proteins (Table 3). […] The improved KD values result primarily from slower ligand dissociation.

[5] = target: T4, hNGAL mutein Tb7.N9.N34, SEQ ID NO: 7 (Tb7.N9 + S127Q) (Homo sapiens, UniProt P80188, C107S/I100T/I61A/K154S/L56R/L90R/Q48H/R101M/S147Q/S88A/T165A/T74Q/V53Q/W99L/Y158L/Y72T); assay: SPR (Biacore), immobilized Me•DTPA-RNase; format: binding
T4 construct: the mature hNGAL protein and the C-terminal Strep-tag II; Strep-tag II (C); OmpA signal peptide (N, cleaved yes); made in house; host or cells: E. coli BL21 or TG1-F- (periplasm), plasmid pNGAL15
T4 sequence (P80188 21-198 with the stated changes): as the sequence (P80188 21-198 Q48H/V53Q/L56R/I61A/Y72T/T74Q/S88A/L90R/W99L/I100T/R101M/C107S/K154S/Y158L/T165A) above, with S127Q counted along it
Experimental: as §1, §2

[6] = target: T5, hNGAL mutein Tb7, SEQ ID NO: 2 (Gln28His, Val33Gln, Leu36Arg, Ile41Ala, Tyr52Thr, Thr54Gln, Ser68Ala, Leu70Arg, Trp79Ala, Arg81Met, Cys87Ser, Lys134Ser, Tyr138L (Homo sapiens, UniProt P80188, C107S/I61A/K154S/L56R/L90R/Q48H/R101M/S88A/T165A/T74Q/V53Q/W99A/Y158L/Y72T)); assay: SPR (Biacore), immobilized Me•DTPA-RNase; format: binding
T5 construct: the mature hNGAL protein and the C-terminal Strep-tag II; OmpA signal peptide (N, cleaved yes); made in house; host or cells: E. coli BL21 or TG1-F- (periplasm), plasmid pNGAL15
T5 sequence (P80188 21-198 Q48H/V53Q/L56R/I61A/Y72T/T74Q/S88A/L90R/W99A/R101M/C107S/K154S/Y158L/T165A): as the sequence (P80188 21-198 Q48H/V53Q/L56R/I61A/Y72T/T74Q/S88A/L90R/W99L/I100T/R101M/C107S/K154S/Y158L/T165A) above, with L79A, T80I counted along it
Experimental: as §1, §2

[7] = target: T6, hNGAL mutein Yd5, SEQ ID NO: 9 (Tb7.N9.N34 + D77E/T136S) (Homo sapiens, UniProt P80188, C107S/D97E/I100T/I61A/K154S/L56R/L90R/Q48H/R101M/S147Q/S88A/T156S/T165A/T74Q/V53Q/W99L/Y158L/Y72T); assay: SPR (Biacore), immobilized Me•DTPA-RNase; format: binding
T6 construct: the mature hNGAL protein and the C-terminal Strep-tag II; OmpA signal peptide (N, cleaved yes); made in house; host or cells: E. coli BL21 or TG1-F- (periplasm), plasmid pNGAL15
T6 sequence (P80188 21-198 with the stated changes): as the sequence (P80188 21-198 Q48H/V53Q/L56R/I61A/Y72T/T74Q/S88A/L90R/W99L/I100T/R101M/C107S/K154S/Y158L/T165A) above, with D77E, S127Q, T136S counted along it
Experimental: as §1, §2

[8] = target: T7, hNGAL mutein Ya6, SEQ ID NO: 8 (Tb7.N9.N34 with Thr136Ser) (Homo sapiens, UniProt P80188, C107S/I100T/I61A/K154S/L56R/L90R/Q48H/R101M/S147Q/S88A/T156S/T165A/T74Q/V53Q/W99L/Y158L/Y72T); assay: SPR (Biacore), immobilized Me•DTPA-RNase; format: binding
T7 construct: the mature hNGAL protein and the C-terminal Strep-tag II; Strep-tag II (C); OmpA signal peptide (N, cleaved yes); made in house; host or cells: E. coli BL21 or TG1-F- (periplasm), plasmid pNGAL15
T7 sequence (P80188 21-198 with the stated changes): as the sequence (P80188 21-198 Q48H/V53Q/L56R/I61A/Y72T/T74Q/S88A/L90R/W99L/I100T/R101M/C107S/K154S/Y158L/T165A) above, with S127Q, T136S counted along it
Experimental: as §1, §2

[9] = target: T8, hNGAL mutein Tb7, SEQ ID NO: 2 (Homo sapiens, UniProt P80188, C107S/I61A/K154S/L56R/L90R/Q48H/R101M/S88A/T165A/T74Q/V53Q/W99A/Y158L/Y72T); assay: ELISA, captured hNGAL variant with Me•DTPA conjugate; format: binding; conditions: Tb•DTPA-RNase A conjugate, read-out: apparent affinity
T8 construct: the mature hNGAL protein and the C-terminal Strep-tag II; OmpA signal peptide (N, cleaved yes); made in house; host or cells: E. coli BL21 or TG1-F- (periplasm), plasmid pNGAL15
T8 sequence (P80188 21-198 Q48H/V53Q/L56R/I61A/Y72T/T74Q/S88A/L90R/W99A/R101M/C107S/K154S/Y158L/T165A): as the sequence (P80188 21-198 Q48H/V53Q/L56R/I61A/Y72T/T74Q/S88A/L90R/W99L/I100T/R101M/C107S/K154S/Y158L/T165A) above, with L79A, T80I counted along it

[10] = 5 μl/min, from the kinetic analysis, read-out: KD
[11] = equilibrium analysis, read-out: Kd/eq

Chain of human neutrophil gelatinase-associated lipocalin (hNGAL, Lcn2, P80188), wild type (P80188 21-198, one chain of several): as the sequence (P80188 21-198) above

O=C(N[C@H]1COC(=O)[C@@H](NC(=O)c2cccc(O)c2O)COC(=O)[C@@H](NC(=O)c2cccc(O)c2O)COC1=O)c1cccc(O)c1O.[Fe+3] [Fe^3+-enterobactin, enterobactin]
Kd ([1]; read-out: dissociation constant (KD)): 0.4 nM

Nc1ccc(C[C@H](CN(CC(=O)O)[C@H]2CCCC[C@@H]2N(CC(=O)O)CC(=O)O)N(CC(=O)O)CC(=O)O)cc1.[Gd+3] [Me•p-NH2-Bn-CHX-A″-DTPA (Gd^3+), [(R)-2-amino-3-(4-aminophenyl)propyl]-trans-(S,S)-cyclohexane-1,2-diamine-pentaacetic acid]
Kd [2]: 3.6 ± 0.24 nM

Nc1ccc(C[C@H](CN(CC(=O)O)[C@H]2CCCC[C@@H]2N(CC(=O)O)CC(=O)O)N(CC(=O)O)CC(=O)O)cc1.[In+3] [Me•p-NH2-Bn-CHX-A″-DTPA (In^3+), [(R)-2-amino-3-(4-aminophenyl)propyl]-trans-(S,S)-cyclohexane-1,2-diamine-pentaacetic acid]
Kd [2]: 44.7 ± 2.5 nM

Nc1ccc(C[C@H](CN(CC(=O)O)[C@H]2CCCC[C@@H]2N(CC(=O)O)CC(=O)O)N(CC(=O)O)CC(=O)O)cc1.[Tb+3] [Me•p-NH2-Bn-CHX-A″-DTPA (Tb^3+), [(R)-2-amino-3-(4-aminophenyl)propyl]-trans-(S,S)-cyclohexane-1,2-diamine-pentaacetic acid]
Kd [2]: 2.9 ± 0.17 nM

C[C@H]1OC(=O)[C@@H](NC(=O)CNC(=O)c2cccc(O)c2O)[C@@H](C)OC(=O)[C@@H](NC(=O)CNC(=O)c2cccc(O)c2O)[C@@H](C)OC(=O)[C@H]1NC(=O)CNC(=O)c1cccc(O)c1O [bacillibactin]
binding [1]: forms stable complexes

O=C(CC(O)(CC(=O)NCCCCNCCCNC(=O)c1ccc(O)c(O)c1)C(=O)O)NCCCCNCCCNC(=O)c1ccc(O)c(O)c1 [petrobactin]
binding [1]: does not bind

B1: Tb^3+•DTPA-RNase: p-SCN-Bn-CHX-A″-DTPA covalently coupled to bovine ribonuclease A (about 1:1), charged with Tb^3+ (conjugate, UniProt P61823 27-150, looked up)
Ribonuclease pancreatic: KETAAAKFERQHMDSSTSAASSSNYCNQMMKSRNLTKDRCKPVNTFVHESLADVQAVCSQKNVACKNGQTNCYQSYSTMSITDCRETGSSKYPNCAYKTTQANKHIIVACEGNPYVPVHFDASV
modifications: CHX-A''-DTPA chelate with Tb3+
binding activity [3]: no measurable binding activity | koff ([4]; 5 μl/min): 0.0105 s⁻¹ | kon ([4]; 5 μl/min): 689000 M⁻¹ s⁻¹ | Kd [4, 10]: 15.2 nM | Kd [4, 11]: 25 ± 2.7 nM | koff ([5]; 5 μl/min): 0.0114 s⁻¹ | kon ([5]; 5 μl/min): 746000 M⁻¹ s⁻¹ | Kd [5, 10]: 15.3 nM | Kd [5, 11]: 21 ± 2.3 nM | koff ([6]; 5 μl/min): 0.0401 s⁻¹ | kon ([6]; 5 μl/min): 535000 M⁻¹ s⁻¹ | Kd [6, 10]: 74.9 nM | Kd ([6]; from concentration-dependent saturation values in an equilibrium analysis, read-out: Kd/eq): 50 ± 6.5 nM | koff ([7]; 5 μl/min): 0.00246 s⁻¹ | kon ([7]; 5 μl/min): 1e+06 M⁻¹ s⁻¹ | Kd [7, 10]: 2.34 nM | Kd [7, 11]: 3.8 ± 0.15 nM | koff ([8]; 5 μl/min): 0.00296 s⁻¹ | Kd [8, 10]: 2.39 nM | Kd [8, 11]: 5 ± 0.22 nM | Kd [9]: 74.5 ± 7.8 nM
